Data on twelve molecules can be found in patent publication US20220242973A1 (Molecular Partners, published 2022).

Assay [1] has as its target T1, Human FAP expressed on the cell surface (WI38, CHO-FAP1.9, U87MG cells) (human, UniProt Q12884 1-760).
T1 construct: whole, on cells; Endogenous on WI38 and U87MG cells; from a human FAP cDNA (OriGene) in CHO-FAP1.9 cells; also called hFAP; FAP+ cells
T1 sequence (looked up): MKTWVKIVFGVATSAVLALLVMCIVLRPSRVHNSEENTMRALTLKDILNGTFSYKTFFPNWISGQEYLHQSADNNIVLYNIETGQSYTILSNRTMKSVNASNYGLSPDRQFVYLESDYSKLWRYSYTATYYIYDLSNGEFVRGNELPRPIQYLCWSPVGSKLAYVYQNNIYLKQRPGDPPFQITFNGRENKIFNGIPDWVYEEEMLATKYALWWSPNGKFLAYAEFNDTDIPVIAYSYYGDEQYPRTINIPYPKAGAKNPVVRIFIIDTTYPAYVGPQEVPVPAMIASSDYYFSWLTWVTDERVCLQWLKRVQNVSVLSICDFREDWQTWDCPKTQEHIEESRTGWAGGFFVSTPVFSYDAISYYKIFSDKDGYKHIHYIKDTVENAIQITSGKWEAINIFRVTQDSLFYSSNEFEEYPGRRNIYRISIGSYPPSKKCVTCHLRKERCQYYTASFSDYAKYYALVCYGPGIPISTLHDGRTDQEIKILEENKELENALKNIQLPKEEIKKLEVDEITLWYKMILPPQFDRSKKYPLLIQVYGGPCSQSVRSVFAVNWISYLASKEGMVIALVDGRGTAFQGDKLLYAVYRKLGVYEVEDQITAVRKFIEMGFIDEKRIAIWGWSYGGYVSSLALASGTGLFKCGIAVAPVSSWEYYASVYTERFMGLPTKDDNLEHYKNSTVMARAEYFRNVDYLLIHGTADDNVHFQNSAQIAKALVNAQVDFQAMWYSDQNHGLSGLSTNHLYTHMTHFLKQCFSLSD
The experiment in a line: FACS on FAP-expressing WI38 cells, Penta-His AF647 detection. As to the method:
Using multi-well plates, 20,000 WI38 cells were added per well in 50 μl of PBS. 50 μl of appropriate dilutions (2× dilution steps) of ankyrin repeat protein was then added to the cells and incubated for 30 minutes on ice. After the ankyrin repeat protein-binding reaction, cells were washed twice with PBS. Direct immunofluorescent detection of the His-tagged ankyrin repeat proteins using Penta-His AF647 conjugate (QIAgen) and determination of live cells using LIVE/DEAD™ Fixable Green Dead Cell Stain Kit (ThermoFisher) were then performed together in one step. The Penta-His AF647 conjugate and the LIVE/DEAD™ Fixable Green dye were applied to the cells together in 1/200 (Penta-His) and 1/1000 (LID Fixable) final dilutions and incubated for 20-30 minutes on ice. After washing the cells with PBS, cells were re-suspended in 1× CellFix™ buffer (BD Biosciences) (10× stock was diluted 1/10 in water). The samples were incubated in CellFix™ buffer for 15-20 minutes at RT, then spun down at 400 g for 5 min. Supernatant was discarded and cells were re-suspended in 200 μl PBS and stored at 4° C. until acquisition and FACS analysis. Acquisition and FACS analysis, including the determination of median fluorescence intensity (MFI), were done within 5 days after staining using an AttuneNxT instrument. Binding curves were fitted by non-linear regression curve fitting using GraphPad Prism software (v 7.0.4).
EC₅₀ values were determined using standard procedures known to the person skilled in the art. […] Table 2 provides the EC₅₀ values of selected ankyrin repeat proteins as examples.

The target in assay [2] is T2, Recombinant human FAP (fibroblast activation protein) (human, UniProt Q12884 26-760).
T2 construct: Bought soluble recombinant protein; Chemically biotinylated for the HTRF screen; also called hFAP; biotinylated human FAP
T2 sequence (looked up): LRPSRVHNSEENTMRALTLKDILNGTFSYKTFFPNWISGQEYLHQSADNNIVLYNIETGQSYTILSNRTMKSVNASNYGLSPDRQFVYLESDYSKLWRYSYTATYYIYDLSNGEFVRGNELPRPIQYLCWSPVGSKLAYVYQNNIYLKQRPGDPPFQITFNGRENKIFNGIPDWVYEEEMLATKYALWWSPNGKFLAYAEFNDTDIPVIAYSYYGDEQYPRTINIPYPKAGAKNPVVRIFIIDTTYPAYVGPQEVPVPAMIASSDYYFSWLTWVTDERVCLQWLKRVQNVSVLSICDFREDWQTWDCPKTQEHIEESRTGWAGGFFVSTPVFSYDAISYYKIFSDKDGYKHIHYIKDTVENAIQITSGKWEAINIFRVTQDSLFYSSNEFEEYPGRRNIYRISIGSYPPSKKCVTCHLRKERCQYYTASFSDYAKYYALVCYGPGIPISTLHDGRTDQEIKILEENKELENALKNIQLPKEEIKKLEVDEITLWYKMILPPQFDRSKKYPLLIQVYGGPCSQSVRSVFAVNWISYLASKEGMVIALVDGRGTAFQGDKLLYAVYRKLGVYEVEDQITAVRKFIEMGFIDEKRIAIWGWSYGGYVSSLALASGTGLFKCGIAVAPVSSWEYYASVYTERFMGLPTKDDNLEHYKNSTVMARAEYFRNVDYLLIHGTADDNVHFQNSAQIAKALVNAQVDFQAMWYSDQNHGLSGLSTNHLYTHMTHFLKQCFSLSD
Description: SPR (ProteOn), human FAP immobilized on GLC chip. As to the method: Briefly, human FAP was diluted in 10 mM Na-acetate pH 5.3 buffer and covalently immobilized on a GLC chip (BioRad) to a level of around 2000 resonance units (RU). The interaction of ankyrin repeat protein and hFAP was then measured by injecting 200 μl running buffer (PBS, pH 7.4 containing 0.005% Tween 20®) containing serial dilutions of ankyrin repeat proteins covering a concentration range between 30 nM and 0.5 nM (on-rate measurement), followed by a running buffer flow for at least 25 minutes at a constant flow rate of 100 μl/min (off-rate measurement). The regeneration was performed using 15 μl of 10 mM Glycine pH 2 followed by 15 μl of 124 mM H₃PO₄. The signals (i.e. resonance unit (RU) values) of the interspots and a reference injection (i.e. injection of running buffer only) were subtracted from the RU traces obtained after injection of ankyrin repeat protein (double-referencing). Based on the SPR traces obtained from the on-rate and off-rate measurements, the on- and off-rate of the corresponding ankyrin repeat protein—FAP interaction was determined.
Dissociation constants (KD) were calculated from the estimated on- and off-rates using standard procedures known to the person skilled in the art. […] Table 1 provides the KD values of some selected ankyrin repeat proteins as examples.

Assay [3] has as its target T2, Recombinant human FAP (fibroblast …). The experiment in a line: cell-based or functional assay.

Residue numbers refer to the chain shown, from its start.

B1: DARPin® protein #21 (designed binder)
chain: MRGSHHHHHHGSYPYDVPDYAGSDLGQKLLNAAFIGQDDEVRILLAAGAGVNAKDRHGHTPLHVTAHHGHLEIVEVLLKAGTDVNAKDNQGNTPLHVAAEADHLEIVEVLLKAGADVNAQDAHGRTPADLAAQLGHEDIAEVLQKLN
On to B1, for which the EC50 – broadly, the concentration needed to bring the measured effect to its halfway point – in assay [1] came to 2.19 nM. The Kd (commonly the concentration at which binding is half-saturated) in assay [2] amounted to 0.885 nM. In addition, the “FAP activity (%)” value in assay [3] amounted to 108%.

B2: DARPin® protein #22 (designed binder)
chain: MRGSHHHHHHGSYPYDVPDYAGSDLGDKLLTAANYGQDDEVRILLAAGADVNAKDRFGHTPLHVAAHFGHLEIVEVLLKAGADVNAKDSLGHTPLHLAAEAGHLEIVEVLLKAGADVNAQDFHGITPADLAAHQGHEDIAEVLQKLN
Regarding B2, in assay [1], it took 1.22 nM to reach a half-maximal effect (EC50). Further, the Kd in assay [2] was found to be 3.4 nM. For the same molecule, the “FAP activity (%)” value in assay [3] was 100%.

B3: DARPin® protein #23 (designed binder)
chain: MRGSHHHHHHGSYPYDVPDYAGSDLGLKLLSAAQVGQDDEVRILLAAGADVNVKDQFGHTPLHVATHFGHLEIVEVLLKAGADVNAKDALGHTPLHLAAEAGHLEIVEVLLKAGADVNAQDAHGRTPADLAAQLGHEDIAEVLQKLN
The molecule B3 yielded an EC50 in assay [1] of 1.82 nM. Besides, the Kd in assay [2] is 2.78 nM. The “FAP activity (%)” value in assay [3] amounted to 100%.

B4: DARPin® protein #24 (designed binder)
chain: MRGSHHHHHHGSYPYDVPDYAGSDLGEKLLEAARRGQDDEVRELLKAGADVNAKDRYGITPLHLAAFLGHLEIVEVLLKDGADVNAKDEWGATPLHVAAYKGHLEIVEVLLKAGADVNAQDLYGKTPADLAAEQGHEDIEEVLQKLN
The molecule B4 displayed an EC50 in assay [1] of 4.49 nM. In addition, the Kd in assay [2] worked out at 1.47 nM. The “FAP activity (%)” value in assay [3] worked out at 102%.

B5: DARPin® protein #14 (designed binder)
chain: MRGSHHHHHHGSYPYDVPDYAGSDLGKKLLEAARAGQDDEVRILLAAGADVNAKDYSGRTPLHLAALTGHLEIVKVLLKHGADVNASDDYGITPLHLDAFIGHLEIVEVLLKNGADVNAMDYQGRTPLHPAAYTGHLEIVEVLLKYGADVNAQDKFGKTAFDISIDNGNEDLAEILQKLN
In assay [1], B5 came in with an EC50 of 0.246 nM. The Kd in assay [2] is 0.007 nM. In assay [3], the “FAP activity (%)” value came out at 86%.

B6: DARPin® protein #7 (designed binder)
chain: MRGSHHHHHHGSYPYDVPDYAGSDLGKKLLEAARAGQDDEVRELLKAGADVNAKDEWGKTPLHLAAALGHLEIVEVLLKAGADVNAKDAWGATPLHVAAFAGHLEIVEVLLKAGADVNAKDTIGFTPLHLAAHSGHLEIVEVLLKAGADVNAQDKSGKTPADLAADAGHEDIVEVLQKLN
For the molecule B6, the EC50 in assay [1] worked out at 1.45 nM. The Kd in assay [2] turned out to be 0.744 nM. Further, in assay [3], the “FAP activity (%)” value came out at 123%.

B7: DARPin® protein #28 (designed binder)
chain: B6 chain with L64Y, A89R, V97I, T122E, I123V, F125W, H133R, A146V
For B7, the EC50 in assay [1] amounted to 0.781 nM. In addition, the Kd in assay [2] was 0.15 nM. The “FAP activity (%)” value in assay [3] amounted to 103%.

B8: DARPin® protein #32 (designed binder)
chain: B6 chain with G58D, G69D, A89Q, W90Y, T122L, I123F, F125W, H133L, S134R
B8: the response in assay [1] was half-maximal at 0.918 nM (EC50). Also, the Kd in assay [2] was 0.527 nM. Besides, the “FAP activity (%)” value in assay [3] stood at 138%.

B9: DARPin® protein #27 (designed binder)
chain: MRGSHHHHHHGSYPYDVPDYAGSDLGKKLLEAARAGQDDEVRELLKAGADVNAKDEWDKTPLHYAAALGHLEIVEVLLKAGADVNAKDVWGATPLHIAAFAGHLEIVEVLLKAGADVNAKDTLGYTPLHLAATRGHLEIVEALLKAGADVNAQDKSGKTPADLAADVGHEDIAEVLQKLN
B9 came in with an EC50 in assay [1] of 0.664 nM. In addition, the Kd in assay [2] is 0.441 nM. Also, the “FAP activity (%)” value in assay [3] turned out to be 110%.

B10: DARPin® protein #2 (designed binder)
chain: MRGSHHHHHHGSYPYDVPDYAGSDLGKKLLEAARAGQDDEVRILLAAGADINAKDKYGVTPLHLAAWAGHLEIVEVLLKAGADVNAKDQSGFTPLHLAAHRGHLEIVEVLLKAGADVNAKDYRGFTPLHLAAEDGHLEIVEVLLKAGADVNAQDKSGKTPADLAADAGHEDIAEVLQKLN
In the case of B10, a half-maximal response in assay [1] (EC50) required 5.26 nM. Moreover, in assay [2], the Kd stood at 8.24 nM. The “FAP activity (%)” value in assay [3] was determined as 117%.

B11: DARPin® protein #29 (designed binder)
chain: MRGSHHHHHHGSYPYDVPDYAGSDLGKKLLEAARAGQDDEVRELLKAGADVNAKDTIGRTPLHIAARYGHLEIVEVLLKAGADVNAKDVYDITPLHLAAFLGHLEIVEVLLKAGADVNAKDYEGTTPLHVAAWHGHLEIVEVLLKAGADVNAQDKSGKTPADLAADAGHEDIAEVLQKLN
Regarding B11, the EC50 in assay [1] came out at 1.13 nM. The Kd in assay [2] came out at 0.255 nM. Also, in assay [3], the “FAP activity (%)” value is 109%.

B12: DARPin® protein #15 (designed binder)
chain: MRGSHHHHHHGSYPYDVPDYAGSDLGKKLLEAARAGQDDEVRILMANGADVNAFDAIGRTPLHLAALYGHLEIVEVLLKHVADVNATDEYGITPLHLAAFMGHLEIVEVLLKYGADVNAIDFDGRTPLHPAAYRGHLEIVEVLLKHGADVNAQDKFGKTAFDISIDNGNEDLAEILQKLN
As for B12, the EC50 in assay [1] came out at 0.33 nM. In addition, the Kd in assay [2] was less than 0.01 nM. Moreover, the “FAP activity (%)” value in assay [3] worked out at 93%.
